Three molecules from US20230037911A1 (SHANGHAI HENLIUS BIOTECH, published 2023) can be followed below.

B1: human TIGIT stably expressed on cells (Jurkat; 293T) (receptor)
chain: MMTGTIETTGNISAEKGGSIILQCHLSSTTAQVTQVNWEQQDQLLAICNADLGWHISPSFKDRVAPGPGLGLTLQSLTVNDTGEYFCIYHTYPDGTYTGRIFLEVLESSVAEHGARFQIPLLGAMAATLVVICTAVIVVVALTRKKKALRIHSVEGDLRRKSAGQEEWSPSAPSPPGSCVQAEAAPAGLCGEQRGEDCAELHDYFNVLSYRSLGNCSFFTETG
notes: the expression vector's insert is not described further; also called h-TIGIT; human TIGIT transfected Jurkat cells

The target of experiment [1] is T1, 2B10 bivalent VHH antibody (VHH with human CH2 and CH3) (human, UniProt P01857-1 104-330 = IgG part, limits assumed).
T1 construct: domain: CH2 and CH3
T1 sequence (P01857 other isoform, or with tags, fused parts or gaps limits assumed): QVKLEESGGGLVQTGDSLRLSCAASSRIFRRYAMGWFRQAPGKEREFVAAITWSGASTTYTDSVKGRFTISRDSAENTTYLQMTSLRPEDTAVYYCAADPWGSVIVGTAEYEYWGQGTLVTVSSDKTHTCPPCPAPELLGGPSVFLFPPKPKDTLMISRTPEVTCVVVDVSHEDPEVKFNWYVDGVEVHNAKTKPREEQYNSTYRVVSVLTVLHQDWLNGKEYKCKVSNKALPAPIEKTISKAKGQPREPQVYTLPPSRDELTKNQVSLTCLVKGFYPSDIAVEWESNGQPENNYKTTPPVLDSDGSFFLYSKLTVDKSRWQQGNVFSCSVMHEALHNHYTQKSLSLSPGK
The experiment in a line: flow cytometry, whole cell binding on Jurkat cells stably expressing human TIGIT; Alexa Fluor 488 anti-human IgG Fc secondary. An excerpt:
(§1) FIGS. 1A-1C depict whole cell binding of representative VHH bivalent antibodies to human TIGIT determined by flowcytometry assays. […] Y axis represents Mean Fluorescence Intensity of AlexaFlour 488. X axis represents antibody concentrations in nanomolar. […] FIG. 1C is a schematic of the structure of a TIGIT VHH bivalent antibody.
(§2) Jurkat cells stably expressing human TIGIT and NFAT reporter gene were established. Specifically, Jurkat cells were transfected with human TIGIT expression vector by electroporation, and cells stably expressing human TIGIT were selected by 1 μg/ml puromycin during cell culture. Representative antibody clones were incubated at different concentrations with h-TIGIT stably expressing Jurkat cells (0.2×10⁶/ml) in 100 μl/well in 96-well plate in FACS buffer (PBS with 1.5% FBS) for 30 min. After washing, Alexaflour 488 conjugated anti-human IgG Fc secondary antibody (Alexa Fluor® 488 AffiniPure Goat Anti-Human IgG, Fcγ fragment specific, Jackson labs, 1:500 dilution) was added and incubated for 30 min. After washing, mean fluorescence intensity was measured using CytoFlex (Beckman Coulter) by gating live cell population. Binding affinity was calculated using GraphPad Prism.
For orientation: A flow cytometer gives signals particle by particle.

Experiment [2] has as its target T2, 3G6 bivalent VHH antibody (VHH with human CH2 and CH3) (human, UniProt P01857-1 104-330 = IgG part, limits assumed).
T2 construct: domain: CH2 and CH3
Described as above.
Description: as §1, §2

The target in experiment [3] is T3, 2B7 bivalent VHH antibody (VHH with human CH2 and CH3) (human, UniProt P01857-1 104-330 = IgG part, limits assumed).
T3 construct: domain: CH2 and CH3; Expressed in ExpiCHO, Protein A purified
T3 sequence (P01857 other isoform, or with tags, fused parts or gaps limits assumed): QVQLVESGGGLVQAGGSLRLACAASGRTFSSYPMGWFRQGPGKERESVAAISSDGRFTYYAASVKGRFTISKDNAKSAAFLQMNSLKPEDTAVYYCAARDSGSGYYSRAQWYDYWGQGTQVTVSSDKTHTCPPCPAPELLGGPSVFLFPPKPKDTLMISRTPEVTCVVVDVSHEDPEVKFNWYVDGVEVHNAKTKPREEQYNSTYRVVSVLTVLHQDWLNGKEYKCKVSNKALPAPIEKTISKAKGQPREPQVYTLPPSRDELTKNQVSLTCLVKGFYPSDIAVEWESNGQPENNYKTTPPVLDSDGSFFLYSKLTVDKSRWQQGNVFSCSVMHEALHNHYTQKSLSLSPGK
Described as above.
Description: as §1, §2

The target of experiment [4] is T4, 15A5 bivalent VHH antibody (VHH with human CH2 and CH3) (human, UniProt P01857-1 104-330 = IgG part, limits assumed).
T4 construct: domain: CH2 and CH3
T4 sequence (P01857 other isoform, or with tags, fused parts or gaps limits assumed): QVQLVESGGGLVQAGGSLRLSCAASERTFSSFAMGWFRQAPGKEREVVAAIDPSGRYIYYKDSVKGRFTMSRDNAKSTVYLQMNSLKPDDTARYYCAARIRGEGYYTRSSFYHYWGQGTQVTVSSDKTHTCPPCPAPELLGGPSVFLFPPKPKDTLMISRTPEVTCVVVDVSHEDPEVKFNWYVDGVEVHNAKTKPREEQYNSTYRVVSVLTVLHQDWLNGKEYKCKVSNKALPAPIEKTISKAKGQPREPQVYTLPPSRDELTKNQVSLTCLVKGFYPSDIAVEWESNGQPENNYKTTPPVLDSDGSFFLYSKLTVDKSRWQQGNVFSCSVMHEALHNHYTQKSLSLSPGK
The description is as above.
Description: as §1, §2

The target in experiment [5] is T5, 3G7 bivalent VHH antibody (VHH with human CH2 and CH3) (human, UniProt P01857-1 104-330 = IgG part, limits assumed).
T5 construct: domain: CH2 and CH3
T5 sequence (P01857 other isoform, or with tags, fused parts or gaps limits assumed): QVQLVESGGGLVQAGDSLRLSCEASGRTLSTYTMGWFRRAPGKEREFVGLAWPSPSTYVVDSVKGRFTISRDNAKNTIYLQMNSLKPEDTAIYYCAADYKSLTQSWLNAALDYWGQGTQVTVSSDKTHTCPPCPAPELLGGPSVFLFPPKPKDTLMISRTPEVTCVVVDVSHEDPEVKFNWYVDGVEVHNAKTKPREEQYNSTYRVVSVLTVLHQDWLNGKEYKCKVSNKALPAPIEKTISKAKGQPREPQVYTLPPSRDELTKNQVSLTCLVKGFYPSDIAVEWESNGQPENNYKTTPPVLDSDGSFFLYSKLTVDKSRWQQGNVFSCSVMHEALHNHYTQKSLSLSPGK
Described as above.
Description: as §1, §2

In experiment [6] the target is T6, 13H11 bivalent VHH antibody (VHH with human CH2 and CH3) (human, UniProt P01857-1 104-330 = IgG part, limits assumed).
T6 construct: domain: CH2 and CH3
T6 sequence (P01857 other isoform, or with tags, fused parts or gaps limits assumed): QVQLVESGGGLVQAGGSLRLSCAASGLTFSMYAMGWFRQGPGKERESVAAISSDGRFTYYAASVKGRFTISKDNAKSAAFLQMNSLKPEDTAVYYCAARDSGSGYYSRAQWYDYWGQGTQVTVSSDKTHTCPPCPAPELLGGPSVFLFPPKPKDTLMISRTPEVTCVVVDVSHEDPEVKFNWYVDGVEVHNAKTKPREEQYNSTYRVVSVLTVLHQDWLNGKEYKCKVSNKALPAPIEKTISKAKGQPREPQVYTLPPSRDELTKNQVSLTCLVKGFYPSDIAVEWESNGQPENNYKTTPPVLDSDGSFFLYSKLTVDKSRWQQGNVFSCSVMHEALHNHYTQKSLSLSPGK
The description is as above.
Description: as §1, §2

The target in experiment [7] is T7, 1G1-F-A-ERES humanized bivalent antibody (human, UniProt P01857-1 104-330 = IgG part, limits assumed).
T7 construct: domain: CH2 and CH3; Called humanized bivalent antibody; the Fc part is not restated
The experiment in a line: flow cytometry, whole cell binding on h-TIGIT transfected Jurkat cells; anti-human IgG Fc AlexaFluor488 secondary. Here is the method: (§3) The binding affinities of the humanized bivalent antibodies to human TIGIT were determined by whole cell binding to h-TIGIT stably expressed on Jurkat cells. Briefly, antibodies were incubated with h-TIGIT transfected Jurkat cells (0.2×10⁶/well in 100 μl) for 30 min in FACS buffer. The cells were washed once, then incubated with anti-human IgG Fc AlexaFluor488 (1:500).

Experiment [8] addresses T8, 1C12-GLEW humanized bivalent antibody (human, UniProt P01857-1 104-330 = IgG part, limits assumed).
T8 construct: domain: CH2 and CH3; Called humanized bivalent antibody; the Fc part is not restated; also called 1C12(F-GLEW)
The description is as above. Here is the method: as §3

For experiment [9], the target named is T9, 1G1-F-G-ERES humanized bivalent antibody (human, UniProt P01857-1 104-330 = IgG part, limits assumed).
T9 construct: domain: CH2 and CH3; Called humanized bivalent antibody; the Fc part is not restated
The description is as above. Here is the method:
as §3

Experiment [10] deals with T10, 1C12-EREF humanized bivalent antibody (human, UniProt P01857-1 104-330 = IgG part, limits assumed).
T10 construct: domain: CH2 and CH3; Called humanized bivalent antibody; the Fc part is not restated; also called 1C12 (F-EREF)
The experiment is described as above. On the procedure: as §3

Experiment [11] concerns the target T11, 1C12-EREW humanized bivalent antibody (human, UniProt P01857-1 104-330 = IgG part, limits assumed).
T11 construct: domain: CH2 and CH3; Called humanized bivalent antibody; the Fc part is not restated; also called 1C12 (F-EREW)
Described as above. Here is the method: as §3

In experiment [12] the target is T12, recombinant human TIGIT extra cellular domain (ECD) protein (human, UniProt Q495A1 22-138).
T12 construct: Purchased protein; it begins with the signal peptide; also called h-TIGIT ECD; human TIGIT ECD
T12 sequence: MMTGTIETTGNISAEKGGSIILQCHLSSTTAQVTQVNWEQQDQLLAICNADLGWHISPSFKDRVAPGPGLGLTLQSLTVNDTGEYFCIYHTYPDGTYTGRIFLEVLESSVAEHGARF
Put plainly: ELISA, VHH in supernatant. For orientation: An ELISA detects its analyte on a solid surface through an enzyme-linked reagent.

Experiment [13] has as its target B1. Put plainly: cell-based or functional assay.
The target of another experiment is T13, recombinant mouse-TIGIT (mouse, UniProt P86176 29-148, limits assumed).
T13 sequence (looked up): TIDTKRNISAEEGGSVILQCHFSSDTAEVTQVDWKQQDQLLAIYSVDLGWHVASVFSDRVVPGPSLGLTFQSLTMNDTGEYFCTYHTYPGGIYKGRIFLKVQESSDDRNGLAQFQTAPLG
Put plainly: ELISA.

In experiment [14] the target is B1. The experiment in a line: whole cell binding, flow cytometry, n=3.
The target in experiment [15] is B1. Put plainly: cell-based or functional assay. The source holds these as a separate data set.
The target of experiment [16] is T12, recombinant human TIGIT extra cellular …. Put plainly: ELISA on recombinant human TIGIT ECD.
The target of experiment [17] is B1. Put plainly: flow cytometry, whole cell binding assay on human TIGIT expressing cells (upper panel).
The target in experiment [18] is T14, recombinant cynomolgus TIGIT (cyno-TIGIT ECD) (cynomolgus monkey, UniProt A0A7N9I9V4 89-209).
T14 construct: extracellular domain
T14 sequence (A0A7N9I9V4 entry or part of it): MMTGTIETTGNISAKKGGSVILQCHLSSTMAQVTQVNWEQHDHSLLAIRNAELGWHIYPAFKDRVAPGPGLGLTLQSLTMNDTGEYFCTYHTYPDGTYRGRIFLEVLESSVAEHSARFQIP
The experiment in a line: ELISA on recombinant cyno-TIGIT.

T2 sequence (P01857 other isoform, or with tags, fused parts or gaps limits assumed): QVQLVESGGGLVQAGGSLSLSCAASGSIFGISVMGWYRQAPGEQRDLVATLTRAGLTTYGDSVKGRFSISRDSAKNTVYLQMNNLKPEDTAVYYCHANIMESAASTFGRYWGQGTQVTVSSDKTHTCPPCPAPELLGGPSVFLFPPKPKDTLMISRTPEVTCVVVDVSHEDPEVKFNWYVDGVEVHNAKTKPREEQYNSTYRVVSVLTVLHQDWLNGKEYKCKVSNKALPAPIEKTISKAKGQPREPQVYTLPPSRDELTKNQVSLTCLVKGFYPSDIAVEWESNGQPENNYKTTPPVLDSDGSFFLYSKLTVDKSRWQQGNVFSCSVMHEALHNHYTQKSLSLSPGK

For B1, the binding result in experiment [1], in [2], in experiment [3], in experiment [4], in [5] and in [6] was “binds” each time. The binding result in experiment [7], in experiment [8], in experiment [9], in [10] and in [11] was “binds” in each case.

B2: 1G1-1C12 VHH (VHH)
VHH: QVQLVESGGGVVQPGRSLRLSCAASGPSFSSYPMGWFRQAPGKERESVAAISSDLRFTYYADSVKGRFTISRDNSKNTLYLQMNSLRAEDTAVYYCAARDSGSGYYSRKQWYDYWGQGTLVTVSS
notes: VHH in bacterial supernatant
B2: the binding result in [12] was “binds”.

B3: Bivalent 2A3 antibody (2A3-Fc), 2A3 VHH with human IgG1 CH2 and CH3 domains (Fc fusion)
chain: QVQLVESGGGVVQPGRSLRLSCAASGGSFSSYPMGWFRQAPGKERESVAAISSDMRFTYYADSVKGRFTISRDNSKNTLYLQMNSLRAEDTAVYYCAARDSGVGYYSRAQWYDYWGQGTLVTVSS
notes: Expressed in ExpiCHO, protein A purified; also called 2A3-Fc mAb; 2A3 clone; not shown: human IgG1 CH2 and CH3 domains
The term EC50 denotes the concentration at which the effect is half-maximal. The term EC50 (read off the curve) denotes the concentration at which the effect is half-maximal. As for B3, the “EC50 (read off the curve); NFAT reporter activity (RLU), human TIGIT blockade reporter assay (lower panel)” value in [13] is around 1 nM. Further, in the experiment with recombinant mouse-TIGIT, the binding result was “no binding”. The molecule further came in with an EC50 in experiment [14] of 0.32 nM. Moreover, the “EC50, TIGIT blockade NFAT luciferase reporter assay” value in experiment [15] worked out at 0.48 nM. Also, the “EC50 (read off the curve)” value in experiment [16] is around 0.1 µg/mL; in experiment [17], around 0.5 nM; in experiment [18], around 0.1 µg/mL.
